Molecular target: the molecule itself
Assay: negative stain transmission electron microscopy

B1: Mopeia virus nucleoprotein (natural protein, UniProt P19239 1-570, looked up)
chain: MSNSKEVKSFLWTQSLRRELSGYCSNIKIQVIKDAQALLHGLDFSEVANVQRLMRKEKRDDSDLKRLRDLNQAVNNLVELKSVQQKNVLRVGTLTSDDLLVLAADLDRLKAKVIRGERPLAAGVYMGNLTAQQLEQRRVLLQMVGMGGGFRAGNTLGDGIVRVWDVRNPELLNNQFGTMPSLTIACMCKQGQADLNDVIQSLSDLGLVYTAKYPNMSDLDKLSQTHPILGIIEPKKSAINISGYNFSLSAAVKAGACLIDGGNMLETIKVTKSNLEGILKAALKVKRSLGMFVSDTPGERNPYENLLYKLCLSGEGWPYIASRTSIVGRAWDNTTVDLSGDVQQNAKPDKGNSNRLAQAQGMPAGLTYSQTMELKDSMLQLDPNAKTWIDIEGRPEDPVEIAIYQPNNGQYIHFYREPTDIKQFKQDSKHSHGIDIQDLFSVQPGLTSAVIESLPKNMVLSCQGADDIRKLLDSQNRRDIKLIDVSMQKDDARKFEDKIWDEYKHLCRMHTGIVTQKKKRGGKEEVTPHCALLDCLMFEAAVIGSPQIPTPRPVLSRDLVFRTGPPRVVL
notes: Nucleoprotein (NP, ~63 kDa) of Mopeia virus (MOPV), full length; also called MOPV-NP; MOPV NP; not shown: thioredoxin, N-terminal, cleaved; His6, N-terminal, cleaved
- stoichiometry N: 7

Reference: paper PMC8016135, “Observation of arenavirus nucleoprotein heptamer assembly” (FEBS Open Bio, 2021)
